Source: PMC7769003

Target: Recombinant VEEV p62-E1 protein (TrD strain) (Venezuelan equine encephalitis virus (TrD strain))
Assay: SPR

Q: Which Kd does the source give for “HRV-cleaved monovalent Ldlrad3-D1 (from UniProt A2AR95 18-70) (domain or fragment)” here?
A: The Kd was 209 nM.
